Data published in patent US20100047163A1.

Assays:
[1] = target: LDL receptor (LDLR) on human glioblastoma multiforme cells (human) (UniProt P01130); test: ^125I-LDL saturation binding to U-251 MG cells (average of 2 experiments)
[2] = target: LDL receptor (LDLR) on human glioblastoma multiforme cells (human) (UniProt P01130); test: ^125I-LDL saturation binding to SF-539 cells
[3] = target: LDL receptor (LDLR) on human glioblastoma multiforme cells (human) (UniProt P01130); test: ^125I-LDL saturation binding to SF-767 cells
[4] = target: LDL receptor (LDLR) on human glioblastoma multiforme cells (human) (UniProt P01130); test: ^125I-LDL saturation binding to SF-763 cells
[5] = target: LDL receptor (LDLR) on human glioblastoma multiforme cells (human) (UniProt P01130); test: ^125I-LDL saturation binding to U-343 MG cells
[6] = target: LDL receptor (LDLR) on human glioblastoma multiforme cells (human) (UniProt P01130); test: ^125I-LDL saturation binding to A-172 cells

Bmax (ng/mg cell protein) [1]: 225
Bmax (ng/mg cell protein) [2]: 310
Bmax (ng/mg cell protein) [3]: 793
Bmax (ng/mg cell protein) [4]: 900
Bmax (ng/mg cell protein) [5]: 510
Bmax (ng/mg cell protein) [6]: 1400
Substance: native plasma LDL (low density lipoprotein; LDLR ligand apoB100 on its surface), P04114 28-4563
